For series [1] the following is noted: phase I studies (Herbst et al., 2010); cited from earlier work.
Series [2] has as its system Hep3B cell line. Put plainly: Cell viability in the Hep3B cell line (FIG. 9). The class given is cell-based. Particulars: after 48 hours.
Series [3] relates to cancer cell lines. Briefly: Cell death induction in cancer cell lines (Example 1). The series is classed as cell-based. From the text:
Redirecting TRAIL-induced signaling away from lysosomal degradation induced massive cell death and overcame TRAIL resistance. This was done by fusing bioactive protein transduction domains (PTD—or CPPs) and signaling peptides, such as TAT peptide from HIV TAT protein, NLS (nuclear localization signal), MTS (mitochondrial targeting sequence), with TRAIL to construct a series of new TRAILs, as shown in FIG. 7.

In series [4] the test system is A2780 cells. Put plainly: Ovarian cancer xenograft model A2780, implanted intraperitoneally. The series is classed as in vivo. The note with it: intraperitoneal implant, preliminary data, FIG. 6. The method, then:
(§1) In vivo testing was performed using ovarian cancer xenograft models, OVCAR3 and A2780, implanted intraperitoneally.

The test system of series [5] is OVCAR3 cells. Briefly: Ovarian cancer xenograft model OVCAR3, implanted intraperitoneally. The class given is in vivo. Particulars: intraperitoneal implant, preliminary data, FIG. 6. As to the method:
as §1

For series [6], the system named is TRAIL-sensitive cancer cell lines. Briefly: Caspase activity in cancer cell lines (FIG. 8). The class given is cell-based. The text has this:
Of the 60 NCI cancer cell lines, 33 TRAIL-sensitive cells lines become more sensitive to TAT-TRAIL, while 17 of TRAIL-resistant cell lines become sensitive to TAT-TRAIL, only 10 cell lines remain resistant.

The subject of series [7] is NCI 60-cancer cell panel (60 different human cancer cell lines). Briefly: NCI 60-cancer cell panel, cell death. The series is classed as cell-based. As to the method:
TAT-TRAIL was tested in an NCI 60-cancer cell panel, which included 60 different human cancer cell lines set up by the National Cancer Institute for cancer therapeutics screening. Among the 60 cell lines of various cancer types, 33 were sensitive to parental TRAIL, but 27 were resistant.

[8] abbreviates: of the 60 NCI cancer cell lines.
The mark [9] stands for this setting: among the 60 cell lines of various cancer types.

“Also recorded” adds a separate entry of the source.

For “recombinant human TRAIL: recombinant human tumor necrosis factor-related apoptosis-inducing ligand tested in clinical studies”, the tolerability result in series [1] is “well tolerated”.

B1: TAT-TRAIL: fusion protein: TRAIL component fused to a 9-amino acid TAT peptide (RKKRRQRRR, SEQ ID NO:2); e.g. poly-His-TAT-hTRAIL94-281 (SEQ ID NO:3) (protein)
chain: HHHHHHRKKRRQRRRRTSEETISTVQEKQQNISPLVRERGPQRVAAHITGTRGRSNTLSSPNSKNEKALGRKINSWESSRSGHSFLSNLHLRNGELVIHEKGFYYIYSQTYFRFQEEIKENTKNDKQMVQYIYKYTSYPDPILLMKSARNSCWSKDAEYGLYSIYQGGIFELKENDRIFVSVTNEHLIDMDHEASFFGAFLVG
modifications: TAT-TRAIL
For the molecule B1, in series [2], the “IC50 (cell viability)” value is given as “low” and the “potency as compared to the His-tagged parental TRAIL” value is reported as “approximately sixty times greater potency”. The “cell death in TRAIL-resistant cancer cells” value in series [3] (TRAIL-resistant cancer cells) was “induced massive cell death in TRAIL-resistant cancer cells”. Besides, the “time to induce cell death” value in series [3] (cancer cell lines) was “less than 1 hour”. In series [3] (cancer cells and normal cells), the “potency in inducing cell death, cancer cells versus normal cells” value is listed as “remarkable high potency in inducing cell death in cancer cells but not normal cells”. Besides, the antitumor effects entry in series [4] is on record as “notable antitumor effects; also recorded: remarkable antitumor effects”. Also, in series [5], the antitumor effects entry is reported as “notable antitumor effects; also recorded: remarkable antitumor effects”. For the same molecule, the “caspase activity compared to control and His-tagged parental TRAIL” value in series [6] is given as “higher caspase activity”. For the same molecule, in series [7] (TRAIL-sensitive cell lines (33 of 60), FIG. 5), the “cell death in TRAIL-sensitive cell lines compared with His-tagged parental TRAIL construct” value is “faster and massive cell death in all 33 TRAIL-sensitive cell lines”. For the same molecule, in series [7] (cell lines resistant to parental TRAIL), the “increase of potency over parental TRAIL” value is given as “up to a hundred times”. For the same molecule, in series [7] (setting [8]), the “number of TRAIL-sensitive cell lines that become more sensitive” value was determined as 33 and the “number of cell lines that remain resistant” value is 10. The “number of TRAIL-resistant cell lines in which effective cell death was executed (become sensitive)” value in series [7] (out of the 27 cell lines resistant to parental TRAIL) amounted to 17.

B2: parental TRAIL: His-tagged parental TRAIL construct without TAT peptide, used as comparator (protein, UniProt P50591 39-281, looked up)
extracellular domain: TNELKQMQDKYSKSGIACFLKEDDSYWDPNDEESMNSPCWQVKWQLRQLVRKMILRTSEETISTVQEKQQNISPLVRERGPQRVAAHITGTRGRSNTLSSPNSKNEKALGRKINSWESSRSGHSFLSNLHLRNGELVIHEKGFYYIYSQTYFRFQEEIKENTKNDKQMVQYIYKYTSYPDPILLMKSARNSCWSKDAEYGLYSIYQGGIFELKENDRIFVSVTNEHLIDMDHEASFFGAFLVG
modifications: extracellular domain His tag
notes: His-tagged parental TRAIL construct without TAT peptide, used as comparator
On to B2, for which, in series [7] (setting [9]), the “number of cell lines resistant to the agent” value is reported as 27 and the “number of cell lines sensitive to the agent” value was 33.

The record behind these values is US20220306768A1, “REDIRECTING DEATH-INDUCING SIGNAL COMPLEX (DISC) BY MODIFYING DEATH RECEPTOR AGONIST TO INDUCE CELL DEATH FOR CANCER TREATMENT” (CITY OF HOPE, priority 2021, published 2022).
